No end group written: not given here. *: point of attachment. Biotin = O=C1N[C@H]2[C@H](CS[C@H]2CCCCC(=O)*)N1; KLH = keyhole limpet hemocyanin
T1: non-sense KLH-conjugated peptide IRQCPDRTYG-GGC-KLH
T1 peptide: IRQCPDRTYGGGC(KLH)

T2: non-sense coater peptide Biotin-SHAHQRTGGN
T2 construct: Control coater on the streptavidin plate
T2 peptide: Biotin-SHAHQRTGGN

B1: monoclonal antibody targeting PRO-C20 (antibody produced by the best performing clone) (antibody, V domains shown)
VH: QIQLMQSGPELKKPGETVKISCKASGYPFTDYSMHWVKQAPGKGLKWMGWINTETGEPTYADGFKGRFAFSLETSASTAYLKINNLKNDDTATYFCARGPYWGQGTLVTVSA
VL: DVLLTQTPLSLPVSLGDQASISCRSSQSIVHNNGKIYLEWFLQKPGQSPKALIQKVSNRFSGVPDRFSGSGSGTDFTLKISRVEAEDLGVYYCFQGSHVPYTFGGGTKLEIKR
notes: Mouse hybridoma antibody (Balb/C mice), purified on protein G and HRP-labelled in the final ELISA; also called HRP-labelled monoclonal antibody; the monoclonal antibody

How the values were obtained:
[1] = target: B1; experiment: competitive ELISA: standard peptide against coated Biotin-… for the HRP-labelled antibody
Procedure: After washing five times with washing buffer (25 mM Tris, 50 mM NaCl, pH 7.2), 20 μL/well of sample was added in duplicates followed by 100 μL/well of 50 ng/mL HRP-labelled monoclonal antibody in assay buffer and incubated for 1 hour at 20° C. with shaking at 300 RPM. After a second washing cycle, 100 μL/well of TMB was added and incubated for 15 minutes in darkness at 20° C. with shaking at 300 RPM. The reaction was stopped by adding 100 μL/well of 1% H₂SO₄. Absorbance was measured at 450 nm with 650 nm as reference. […]
Assay variation was tested by running ten independent run of the assay using ten quality control samples in double determinations. […] Intra-assay variation was calculated as the mean coefficient of variance (CV %) between the double determinations on each of the ten runs. Inter-assay variation was calculated as the overall CV % for all determinations on the ten runs. Lower-and upper-limit of the measurement range (LLMR and ULMR) were determined as the concentrations that denotes the limits of the linear range of the assay. Lower limit of detection was calculated as the mean interpolated concentration of 21 blank samples, only containing assay buffer, plus three standard deviations. Upper limit of detection was calculated as the mean interpolated concentration of standard peptide corresponding to the highest concentration of the standard curve minus three standard deviations.

[2] = target: T1, non-sense KLH-conjugated peptide …; experiment: preliminary competitive ELISA for clone selection
[3] = target: T2, non-sense coater peptide …; experiment: ELISA with the non-sense biotinylated peptide as coater on a streptavidin plate
Procedure: Several optimizations were made to the ELISA including the choice of assay buffer, incubation time and temperature as well as concentrations of antibody and peptides. […] After washing five times with washing buffer (25 mM Tris, 50 mM NaCl, pH 7.2), 20 μL/well of sample was added in duplicates followed by 100 μL/well of 50 ng/mL HRP-labelled monoclonal antibody in assay buffer and incubated for 1 hour at 20° C. with shaking at 300 RPM. After a second washing cycle, 100 μL/well of TMB was added and incubated for 15 minutes in darkness at 20° C. with shaking at 300 RPM. The reaction was stopped by adding 100 μL/well of 1% H₂SO₄. Absorbance was measured at 450 nm with 650 nm as reference. To generate a standard curve, 20 μL/well of 50 ng/ml standard peptide ([…] (SEQ ID NO: 6)), serially diluted two-fold, was added to appropriate wells and a four-parametric logistic regression model was used to fit a curve. […]
Antibody specificity was evaluated by the inhibition of signal by two-fold serial dilutions of the standard peptide ([…] (SEQ ID NO: 6)), elongated peptide ([…] (SEQ ID NO: 2)), truncated peptide ([…] (SEQ ID NO: 3)) as well as a non-sense standard peptide ([…] (SEQ ID NO: 8)) and a non-sense coater peptide (Biotin-[…] (SEQ ID NO: 9)).

IC50 [1] [ng/mL] | binding result [2] | binding result [3] | Binder
5.59 | – | – | RHLEGRGEPGAVGQMGSPGQQGASTQGLWE (Synthetic 30-mer corresponding to the C-terminus of type XX collagen; also called 30 amino-acid variant) [standard peptide RHLEGRGEPGAVGQMGSPGQQGASTQGLWE]
– | no binding | no binding | B1
